Reference: patent US8741844B2, “Use of mutated antithrombins for treating or preventing coagulation disorders” (Universite Paris-Sud XI, priority 2007, dated 2014)

How the values were obtained:
factor Xa = target: T1, factor Xa (Homo sapiens, UniProt P00742); assay: Kinetic assay of factor Xa inhibition by antithrombins in a purified system (chromogenic substrate, continuous or discontinuous); assay type: biochemical; settings: for factor Xa inhibition in continuous method: saturating pentasaccharide concentration; for anticoagulant / anti-factor Xa activity / inhibition rate constant (kon) for factor Xa: discontinuous method; for factor Xa inhibitory activity: with or without pentasaccharide, compared with plasma / wild type antithrombin
T1 construct: purchased Kordia
Procedure: Briefly, factor Xa is incubated with an excess of tested antithrombins (corresponding to plasma antithrombin, or wild type antithrombin or mutated antithrombins and varying in each assay realized) in the presence or absence of pentasaccharide (Fondaparinux sodique, Arixtra®, GlaxoSmithKline) and the factor Xa residual activity is measured as a function of time. The pentasaccharide is added in excess in the reaction media so that every tested antithrombin is bound to the pentasaccharide. In the absence of pentasaccharide, polybrene is added in order to neutralize any sulfated glycosaminoglycan that may be present in the reaction media. The residual factor Xa activity is measured as the increase in absorbance at 405 nm resulting from cleavage of the chromogenic substrate (S2765 or S2222, Chromogenix) using a microplate reader (Dynatech MR 5000). The analysis of the data is performed using the GraphPad Prism version 3 software. Absorbance recording is continuous or discontinuous according to the expected inhibition rate constant (kon).
The inhibition rate constant (kon) is the second order rate constant given in M^−1·s^−1 which define the velocity of stable complex formation between protease and antithrombin (higher is the kon value, faster will the complex be established).
When the expected kon is lower than 10^4 M^−1·s^−1 the discontinuous method is used. Factor Xa (0.2 to 1 μM, or 0.1 to 1 μM) is incubated with tested antithrombins (0.2 to 10 μM, or 1 to 10 μM) in the presence of pentasaccharide (10 to 100 μM) or polybrene (100 μg/ml) in a final volume of 10 μl for 10 seconds to 5 hours, or 10 seconds to 24 hours. At the end of this incubation period, 190 μl of kinetic buffer containing 200 μM substrate is added and absorbance at 405 nm is recorded.
The kinetic rate constant (k) is estimated by fitting the substrate hydrolysis initial rate curve to equation (1) using non-linear regression with v0 and v∞ being the substrate hydrolysis rate at time to or too respectively. […] (1)
The inhibition rate constant (kon) is calculated from the rate constant (k) using equation (2) where AT is the tested antithrombin concentration. k=AT·kon (2)
When the expected kon is higher than 10^4 M^−1·s^−1′ the continuous method is used. The tested antithrombin (0.01 to 1 μM, or 0.1 to 1 μM) is incubated with the substrate (200 μM) in the presence of pentasaccharide or polybrene in a final volume of 100 μL, or 190 μl, and the reaction is started by addition of 100 μL, or 10 μL, of factor Xa (2 nM or 10 nM). The rate constant (k) is obtained by fitting the substrate hydrolysis curve to equation (3) or (3′) using non-linear regression analysis where A0 is the absorbance at t0, and vi and vs are respectively the initial and final rates of substrate hydrolysis in the absence of tested antithrombin. A405=A0+vi·(1−exp(−k·t))/k. (3) Equation (3′) is also used, particularly in presence of plasma. A405=A0+vs*t+(vi−vs)*(1−exp(−k·t))/k. (3′)
The inhibition rate constant (kon) is calculated from the kinetic constant (k) using equation (4) that takes into account the competitive effect of the substrate, with S being the initial substrate concentration, Km, the Michaelis constant for factor Xa-substrate interaction, AT the tested antithrombin concentration. k=(kon/(1+S/Km))·[AT] (4)
Mutated antithrombins and wild type AT inhibitory activity are measured in the same conditions and compared with plasma AT inhibitory activity.

[1] = test system: pentasaccharide bound murine antithrombin (plasma anti-Xa activity); assay: Anti factor Xa assay in mouse plasma supplemented with Fondaparinux; assay type: biochemical
Procedure: During the animal experimentation (see detailed protocol below), human mutated antithrombins compete with murine antithrombin for their binding to the pentasaccharide. Thus, preliminary in vitro assays are performed to determine the human mutated antithrombin concentration necessary to compete with the murine antithrombin present in mouse plasma supplemented with Fondaparinux.
These experiments are performed as described in section II-b, using mouse plasma instead of human plasma.

[2] = Heparin affinity column elution with NaCl gradient; assay type: binding
Procedure: Conditioned media are thawed, pooled, salt concentration adjusted to 0.4 M NaCl and then applied on an heparin immobilized column (Hitrap Heparin 5 ml or Heparin-sepharose CL6B 50 ml, GE Biological) equilibrated with 10 mM Tris, or with 20 mM phosphate buffer, 0.4 M NaCl and 0.1 mM EDTA, pH 7.4. The bound proteins are eluted in the same buffer with a gradient from 0.4 M to 2 M NaCl. The fractions eluted from 0.8 M NaCl and more contained only wild type antithrombin or mutated antithrombins with high heparin affinity. […] The collected fractions are pooled and the salt concentration is decreased either by over night dialysis against 10 mM Tris, or 20 mM phosphate, and 0.1 M NaCl, pH 7.4 at 4° C. or applied on an HiPrep 26/10 desalting column equilibrated with 10 mM Tris, or 20 mM phosphate, and 0.1 M NaCl, pH 7.4. The antithrombin is then concentrated by ion exchange chromatography using a “Resource Q” 1 ml column (GE, Biological) equilibrated with 10 mM Tris, or 20 mM phosphate, and 0.1 M NaCl, pH 7.4 and eluted in the same buffer with a NaCl gradient from […] to 0.5 M or 20 mM to 0.5 M. The antithrombin concentration in each elution fraction is estimated by absorbance at 280 nm with an absorption coefficient ε=0.65 g^−1·l·cm^−1 and the integrity of purified wild type antithrombin or mutated antithrombins is tested by western blotting using the same couple of antibodies as described before, and electrophoresis on 10% acrylamide/bisacrylamide gel in native and denaturing conditions followed by coomassie brilliant blue R-250 staining (FIG. 4). Then, the antithrombin preparation is aliquoted and stored at −80° C. before use for functional assay. The same procedure is used to purify plasma antithrombin (used as internal reference) from human plasma.

[3] = in the presence of pentasaccharide

T1 sequence (P00742 235-488 limits assumed): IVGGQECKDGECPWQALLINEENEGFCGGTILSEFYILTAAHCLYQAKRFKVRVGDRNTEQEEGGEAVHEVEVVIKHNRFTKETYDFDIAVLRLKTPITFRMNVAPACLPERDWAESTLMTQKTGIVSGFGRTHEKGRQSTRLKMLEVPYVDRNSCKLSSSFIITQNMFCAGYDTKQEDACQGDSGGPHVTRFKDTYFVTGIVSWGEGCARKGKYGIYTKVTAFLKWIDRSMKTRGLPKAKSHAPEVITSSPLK
T1 sequence (P00742 41-179 partner limits assumed): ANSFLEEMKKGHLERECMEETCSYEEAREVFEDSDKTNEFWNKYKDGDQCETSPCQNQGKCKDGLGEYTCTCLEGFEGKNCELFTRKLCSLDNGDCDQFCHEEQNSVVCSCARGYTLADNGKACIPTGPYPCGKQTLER

| factor Xa inhibitory activity (factor Xa) | kon, times lower than plasma AT (factor Xa; [3]) | Molecule | factor Xa inhibition in continuous method (factor Xa) | anticoagulant / anti-factor Xa activity (factor Xa; [3]) | inhibition rate constant (kon) for factor Xa (factor Xa; [3]) [M⁻¹ s⁻¹] | effect on anti-Xa activity of pentasaccharide contained in mouse plasma [1] | elution from heparin affinity column compared with wild type antithrombin [2] |
| --- | --- | --- | --- | --- | --- | --- | --- |
| negligible |  | AT-R393H: human antithrombin (SEQ ID NO:2) with substitution of the amino acid at position 393 by Histidine |  |  |  | significant decrease |  |
| negligible |  | AT-ΔR393: human antithrombin with deletion of the amino acid at position 393 (protein, listed as Homo sapiens) HGSPVDICTAKPRDIPMNPMCIYRSPEKKATEDEGSEQKIPEATNRRVWELSKANSRFATTFYQHLADSKNDNDNIFLSPLSISTAFAMTKLGACNDTLQQLMEVFKFDTISEKTSDQIHFFFAKLNCRLYRKANKSSKLVSANRLFGDKSLTFNETYQDISELVYGAKLQPLDFKENAEQSRAAINKWVSNKTEGRITDVIPSEAINELTVLVLVNTIYFKGLWKSKFSPENTRKELFYKADGESCSASMMYQEGKFRYRRVAEGTQVLELPFKGDDITMVLILPKPEKSLAKVEKELTPEVLQEWLDELEEMMLVVHMPRFRIEDGFSLKEQLQDMGLVDLFSPEKSKLPGIVAEGRDDLYVSDAFHKAFLEVNEEGSEAAASTAVVIAGSLNPNRVTFKANRPFLVFIREVPLNTIIFMGRVANPCVK |  |  |  | significant decrease |  |
| negligible |  | AT-ΔS394: human antithrombin with deletion of the amino acid at position 394 (protein, listed as Homo sapiens) HGSPVDICTAKPRDIPMNPMCIYRSPEKKATEDEGSEQKIPEATNRRVWELSKANSRFATTFYQHLADSKNDNDNIFLSPLSISTAFAMTKLGACNDTLQQLMEVFKFDTISEKTSDQIHFFFAKLNCRLYRKANKSSKLVSANRLFGDKSLTFNETYQDISELVYGAKLQPLDFKENAEQSRAAINKWVSNKTEGRITDVIPSEAINELTVLVLVNTIYFKGLWKSKFSPENTRKELFYKADGESCSASMMYQEGKFRYRRVAEGTQVLELPFKGDDITMVLILPKPEKSLAKVEKELTPEVLQEWLDELEEMMLVVHMPRFRIEDGFSLKEQLQDMGLVDLFSPEKSKLPGIVAEGRDDLYVSDAFHKAFLEVNEEGSEAAASTAVVIAGRLNPNRVTFKANRPFLVFIREVPLNTIIFMGRVANPCVK |  |  |  | significant decrease |  |
| negligible |  | AT-ΔR393-S394: human antithrombin with deletion of the amino acids at positions 393 and 394 (protein, listed as Homo sapiens) HGSPVDICTAKPRDIPMNPMCIYRSPEKKATEDEGSEQKIPEATNRRVWELSKANSRFATTFYQHLADSKNDNDNIFLSPLSISTAFAMTKLGACNDTLQQLMEVFKFDTISEKTSDQIHFFFAKLNCRLYRKANKSSKLVSANRLFGDKSLTFNETYQDISELVYGAKLQPLDFKENAEQSRAAINKWVSNKTEGRITDVIPSEAINELTVLVLVNTIYFKGLWKSKFSPENTRKELFYKADGESCSASMMYQEGKFRYRRVAEGTQVLELPFKGDDITMVLILPKPEKSLAKVEKELTPEVLQEWLDELEEMMLVVHMPRFRIEDGFSLKEQLQDMGLVDLFSPEKSKLPGIVAEGRDDLYVSDAFHKAFLEVNEEGSEAAASTAVVIAGLNPNRVTFKANRPFLVFIREVPLNTIIFMGRVANPCVK |  |  |  | significant decrease |  |

Second part, the molecule before the results:

| Molecule | factor Xa inhibitory activity (factor Xa) | kon, times lower than plasma AT (factor Xa; [3]) | factor Xa inhibition in continuous method (factor Xa) | anticoagulant / anti-factor Xa activity (factor Xa; [3]) | inhibition rate constant (kon) for factor Xa (factor Xa; [3]) [M⁻¹ s⁻¹] | effect on anti-Xa activity of pentasaccharide contained in mouse plasma [1] | elution from heparin affinity column compared with wild type antithrombin [2] |
| --- | --- | --- | --- | --- | --- | --- | --- |
| AT-N135Q-R393H: human antithrombin with substitution at 393 by Histidine and at 135 by Glutamine | negligible |  | slow factor Xa inhibitors | largely reduced | 4415 | significant decrease | higher ionic strength than wild type antithrombin |
| AT-N135Q-Pro394: human antithrombin with Proline inserted between 393 and 394 and substitution at 135 by Glutamine (protein, listed as Homo sapiens) HGSPVDICTAKPRDIPMNPMCIYRSPEKKATEDEGSEQKIPEATNRRVWELSKANSRFATTFYQHLADSKNDNDNIFLSPLSISTAFAMTKLGACNDTLQQLMEVFKFDTISEKTSDQIHFFFAKLNCRLYRKAQKSSKLVSANRLFGDKSLTFNETYQDISELVYGAKLQPLDFKENAEQSRAAINKWVSNKTEGRITDVIPSEAINELTVLVLVNTIYFKGLWKSKFSPENTRKELFYKADGESCSASMMYQEGKFRYRRVAEGTQVLELPFKGDDITMVLILPKPEKSLAKVEKELTPEVLQEWLDELEEMMLVVHMPRFRIEDGFSLKEQLQDMGLVDLFSPEKSKLPGIVAEGRDDLYVSDAFHKAFLEVNEEGSEAAASTAVVIAGRPSLNPNRVTFKANRPFLVFIREVPLNTIIFMGRVANPCVK | negligible | at least 7600 times | slow factor Xa inhibitors | almost devoid of anti-factor Xa activity | 33 | significant decrease | higher ionic strength than wild type antithrombin |
| AT-Pro394: human antithrombin with insertion of a Proline between positions 393 and 394 (protein, listed as Homo sapiens) HGSPVDICTAKPRDIPMNPMCIYRSPEKKATEDEGSEQKIPEATNRRVWELSKANSRFATTFYQHLADSKNDNDNIFLSPLSISTAFAMTKLGACNDTLQQLMEVFKFDTISEKTSDQIHFFFAKLNCRLYRKANKSSKLVSANRLFGDKSLTFNETYQDISELVYGAKLQPLDFKENAEQSRAAINKWVSNKTEGRITDVIPSEAINELTVLVLVNTIYFKGLWKSKFSPENTRKELFYKADGESCSASMMYQEGKFRYRRVAEGTQVLELPFKGDDITMVLILPKPEKSLAKVEKELTPEVLQEWLDELEEMMLVVHMPRFRIEDGFSLKEQLQDMGLVDLFSPEKSKLPGIVAEGRDDLYVSDAFHKAFLEVNEEGSEAAASTAVVIAGRPSLNPNRVTFKANRPFLVFIREVPLNTIIFMGRVANPCVK | negligible |  |  |  |  | significant decrease |  |
